Laboratory results reported in PMC2650008.

Biological target: T1, PpPutA45 (Pseudomonas putida, UniProt Q9R9T7 1-45)
T1 chain: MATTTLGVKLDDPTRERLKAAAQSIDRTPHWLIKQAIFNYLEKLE
Assay: EMSA

B1: O2-12 (dsDNA)
DNA 1: GCGGTTGCACCT
DNA 2: AGGTGCAACCGC
binding result: no binding
